Data as given in publication PMC2063460.

System: Tus-LPETGG-His6 (sortase-immobilized on glycine-modified GMA beads) (Escherichia coli)
Assay: bead-based fluorescence binding (FACS)
Conditions: 50 mM Tris-HCl, 250 mM KCl, 0.1 mM EDTA, 0.1 mM DTT, pH 9; temperature of binding not stated

In the case of TerB, the Kd is reported as 29 nM.
